Data reported in patent US20230226096A1 (Orna Therapeutics, Inc., priority 2020, published 2023).

B1: Caprine Kobuvirus d50 (nucleic acid, listed as Kobuvirus sp.)
DNA: CCGGGCCACCGATACTTCCCTTCACTCCTTCGGGACTGTTGGGGAGGAACACAACAGGGCTCCCCTGTTTTCCCATTCCTTCCCCCTTTTCCCAACCCCAACCGCCGTATCTGGTGGCGGCAAGACACACGGGTCTTTCCCTCTAAAGCACAATTGTGTGTGTGTCCCAGGTCCTCCTGCGTACGGTGCGGGAGTGCTCCCACCCAACTGTTGTAAGCCTGTCCAACGCGTCGTCCTGGCAAGACTATGACGTCGCATGTTCCGCTGCGGATGCCGACCGGGTAACCGGTTCCCCAGTGTGTGTAGTGCGATCTTCCAGGTCCTCCTGGTTGGCGTTGTCCAGAAACTGCTTCAGGTAAGTGGGGTGTGCCCAATCCCTACAAAGGTTGATTCTTTCACCACCTTAGGAATGCTCCGGAGGTACCCCAGCAACAGCTGGGATCTGACCGGAGGCTAATTGTCTACGGGTGGTGTTTCCTTTTTCTTTTCACACAACTCTACTGCTGACAACTCACTGACTATCCACTTGCTCTCTTGTGCCTTTCTGCTCTGGTTCAAGTTCCTTGATTGTTTTTGACTGCTTTTCACTGCTTTTCTTCTCACAATCCTTGCTCAGTTCAAAGTC
B2: Picornavirales sp. isolate RtMruf-PicoV (nucleic acid)
DNA: TTTGCTCAGCGTAACTTCTCCGGGTTACGTGGAGACCAAAAGGCTACGGAGACTCGGGCTACGGCCCTGGAGCACCTAGGTGCTCCTAAAGACGTTAGAAGTTGTACAAACTCGCCCAATAGGGCCCCCCAACCAGGGGGGTAGCGGGCAAGCACTTCTGTTTCCCCGGTATGATCTCATAGGCTGTACCCACGGCTGAAAGAGAGATTATCGTTACCCGCCTCACTACTTCGAGAAGCCCAGTAATGGTTCATGAAGTTGATCTCGTTGACCCGGTGTTTCCCCCACACCAGAAACCTGTGATGGGGGTGGTCATCCCGGTCATGGCGACATGACGGACCTCCCCGCGCCGGCACAGGGCCTCTTCGGAGGACGAGTGACATGGATTCAACCGTGAAGAGCCTATTGAGCTAGTGTTGATTCCTCCGCCCCCGTGAATGCGGCTAATCCCAACTCCGGAGCAGGCGGGCCCAAACCAGGGTCTGGCCTGTCGTAACGCGAAAGTCTGGAGCGGAACCGACTACTTTCGGGAAGGCGTGTTTCCTTTTGTTCCTTTTATCAAGTTTTATGGTGACAACTCCTGGTAGACGTTTTATTGCGTTTATTGAGAGATTTCCAACAATTGAACAGACTAGAACCACTTGTTTTATCAAACCCTCACAGAATAAGATAACA
B3: Apodemus agrarius picornavirus strain Longquan-Aa118 (nucleic acid)
DNA: TTACTCAGCGTAACTACTCCGGGTTACGTGATGAAGAAGAGGCTACGGAGATTCTCGGGCTACGGCCCTGGAGCCACTCCGGCTCCTAAAGATTTAGAAGTTTGAGCACACCCGCCCACTAGGGCCCCCCATCCAGGGGGGCAACGGGCAAGCACTTCTGTTTCCCCGGTATGATCTGATAGGCTGTAACCACGGCTGAAACAGAGATTATCGTTATCCGCTTCACTACTTCGAGAAGCCTAGTAATGATGGGTGAAATTGAATCCGTTGATCCGGTGTCTCCCCCACACCAGAAACTCATGATGAGGGTTGCCATCCCGGCTACGGCGACGTAGCGGGCATCCCTGCGCTGGCATGAGGCCTCTTAGGAGGACGGATGATATGGATCTTGTCGTGAAGAGCCTATTGAGCTAGTGTCGACTCCTCCGCCCCCGTGAATGCGGCTAATCCTAACCCCGGAGCAGGTGGGTCCAATCCAGGGCCTGGCCTGTCGTAATGCGTAAGTCTGGGACGGAACCGACTACTTTCGGGAAGGCGTGTTTCCATTTGTTCATTATTTGTGTGTTTATGGTGACAACTCTGGGTAAACGTTCTATTGCGTTTATTGAGAGATTCCCAACAATTGAACAAACGAGAACTACCTGTTTTATTAAATTTACACAGAGAAGAATTACA
B4: Niviventer confucianus picornavirus (nucleic acid)
DNA: CCCTTTCATAACCCCCCCCTTTTAACCCAACCCTTCGTAACCGTACGCTTCACTCGCCTTTGGGTATAGCGGCCCAATGTGCTGAAGAAAAGGATACGCTATAAGGGGCCAACGGGTGGTGGCCCTTAAGACCACCCAACCTAGAAGCTTGTACACTCGGGCAATAGTGAGGCCCACATCCAGTGGGTCAAGCCCAAAGCATTCTTGTTCCCCGGTATGATCTCATAAGCTGTACCCACGGCTGAAAGAGTGATTATCGTTATCCCACTCAGTACTTCGGAGAGCCTAGTACACCACTTGGAAATGGAAGTCTGTGATCCGGGGTTGACCCTGAACCCCAGAAACTCATGATGAGGCTAACCTTCCCGAACACGGCGACGTGTGGTTAGCCTGCGCTGGCATGAGGCCTCTTTGTAGGCAGACTGAAATGGAAGGGTGACGAAGAGCCGACTGAGCTACTGTTTTATTCCTCCGGCCCCCTGAATGCGGCTAATCCTAACTCCTGGTCCAGTACTTGTAACCCAACAGGTGGCTGGTCGTAATGCGTAAGCCGGGAGCGGAACCGACTACTTTGGGGCGTCCGTGTTTCTCAATATTATTCATTTCTAGCTTATGGTGACAATTTATGATTGCAGAGATTGTGCTGTATTTGTGTCTGAGAGAAGAAGTAACAAT
B5: Bat picornavirus isolate BtRs-PicoV (nucleic acid)
DNA: TTTCAAAAGGCCCTGGGCATACGGCGTTATTCGTAACGTCGTATGTCCAGGGCGGTAGCATCAGGCCAAGGCCTGATGCTACCACGTGTGGACTAAACCACACACTCTTCTTGTGACACGTTGTGTCACCTATCCCTTTCTTGGTAACTTAGAAGCTTGTACACTTACGCACGTAGGTGCCCCACATCCAGTGGGGTTTGTGCAAAGCAATCTTGTTCCCCGGTAAACCCTGATAGGCTGTAACCACGGCCGAAACAAGGTTTGTCGTTACCCGACTCACTACTACACAAAGCCTAGTAAAGTTCAATGAAAGTGCGCAGCGTGATCCGGTCAAAACCCCCTTGACCAGAAACACATGATGAGGGTCACCAACCCCCACTGGCGACAGTGTGGTGTCCCTGCGTTGGCATGTGGCCTCGTAGAGGCGTTGCAATCTGGATTTGCTCCGAAGAGCCCCGTGTGCTAGTGTTTATACCTCCGGCCCCTTGAATGCGGCTAATCCTAACCCCCGAGCATGTACACACAAGCCAGTGTGTAGCATGTCGTAATGAGCAATTTGGGGATGGAACCGACTACTTTAGGGTGTCCGTGTTTCTCATTATTCTTTGTTTGATGTTTT
B6: Rhinolophus picornavirus strain Henan-Rf265 (nucleic acid)
DNA: CGGAACGTTGTATGCTCAGGGCGTAGGCACCACCCACGGGTGGTGCCTACACGTGTGGACTAAACCACACACTCTTTTCAGCACTTAGTGCTGCTATCTCTTTTTGTAACTTAGAAGTTTGTACACAATGCGTTAGGGCCACACATCCAGTGTGGTATCGCAAAGCACTTCTGTTTCCCCGGTGCTAGTAGGAGGGTGGCTGCTCCACGGCCACTTGCCGAACCCATCGTTACCCGACTCATTACTTCGCAAAGCCTAGTAACCCAGTTGAAGCAAGCCCGGCGTGTTCCGGTCAGGAAAAACCCCCCCTGGCCAGAAACATGTGATGAGGGTGGGCTATCCCCACTGGTGACAGTGAGCCCTCCCTGCGTTGGCACATGGCCCGATCTGGGCGTGGTTCTTGTGGATGCTGCCGAAGAGCCCCGTGAGCTAGTGTTTATACCGCCGGCCTCGTGAATGCGGCTAACCCTAACCCCGGAGCAGAGGCTACTGAAGCCACAGTAGTCGCTGTCGTAACGAGTAATTCTGGGATGGGACCGACTACTTTCGAGTGTCCGTGTTTCCTTTATTCTTTTATTGTTGTTTATGGTGACAAAC

Test system: HEK293 cells
Format: cell-based, human
Conditions: luminescence from secreted Gluc in supernatant 24 hours after transfection of HEK293 cells; circular RNA encoding Gluc with the named IRES (UTR truncated to 675 nt)

| Molecule | Expression |
| --- | --- |
| B1 | 9.65E+07 |
| B2 | 2.26E+08 |
| B3 | 1.90E+08 |
| B4 | 6.10E+07 |
| B5 | 1.13E+06 |
| B6 | 3.85E+05 |
